From publication PMC8163358

Target: gramicidin S synthetase A (GrsA) (UniProt P0C062)
Test: MST; 1 nM GrsA labelled with NT-647-NHS (RED-NHS kit), dilution series of TycB1(WT); NRPS buffer (50 mM HEPES, 100 mM NaCl, 10 mM MgCl2, 1 mM EDTA, pH 7.0) with 0.05% (v/v) Tween-20; triplicate; sigmoidal fit

Chain of UniProt P0C062 (P0C062 whole entry): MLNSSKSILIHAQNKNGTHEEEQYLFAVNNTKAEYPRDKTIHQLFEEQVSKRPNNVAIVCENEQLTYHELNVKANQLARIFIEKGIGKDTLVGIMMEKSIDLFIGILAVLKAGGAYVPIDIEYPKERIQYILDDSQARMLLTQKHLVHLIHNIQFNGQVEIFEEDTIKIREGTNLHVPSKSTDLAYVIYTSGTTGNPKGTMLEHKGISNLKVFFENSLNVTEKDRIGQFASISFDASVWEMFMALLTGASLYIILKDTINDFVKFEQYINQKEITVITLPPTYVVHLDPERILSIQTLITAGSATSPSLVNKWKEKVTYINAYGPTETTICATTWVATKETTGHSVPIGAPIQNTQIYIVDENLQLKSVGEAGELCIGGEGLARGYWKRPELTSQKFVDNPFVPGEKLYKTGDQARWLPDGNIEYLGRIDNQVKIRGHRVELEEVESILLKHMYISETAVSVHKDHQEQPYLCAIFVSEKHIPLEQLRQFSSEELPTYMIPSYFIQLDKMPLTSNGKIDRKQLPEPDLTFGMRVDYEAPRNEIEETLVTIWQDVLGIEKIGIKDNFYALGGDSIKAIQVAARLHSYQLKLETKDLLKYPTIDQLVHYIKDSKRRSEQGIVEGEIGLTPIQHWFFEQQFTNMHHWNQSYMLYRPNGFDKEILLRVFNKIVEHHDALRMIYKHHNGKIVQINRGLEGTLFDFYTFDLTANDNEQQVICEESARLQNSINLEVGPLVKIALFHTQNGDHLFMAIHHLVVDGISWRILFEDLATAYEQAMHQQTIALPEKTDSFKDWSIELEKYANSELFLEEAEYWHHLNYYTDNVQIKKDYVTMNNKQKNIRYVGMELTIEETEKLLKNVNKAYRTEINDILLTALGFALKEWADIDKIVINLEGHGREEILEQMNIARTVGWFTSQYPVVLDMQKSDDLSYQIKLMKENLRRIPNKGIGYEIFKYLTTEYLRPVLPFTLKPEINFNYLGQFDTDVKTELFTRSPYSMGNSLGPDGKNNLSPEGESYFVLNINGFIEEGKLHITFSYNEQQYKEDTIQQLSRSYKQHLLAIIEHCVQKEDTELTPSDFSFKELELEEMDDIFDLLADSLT

Question: How did the Kd turn out when “TycB1 (wildtype) (from UniProt O30408 1-3587) (domain or fragment)” was run?
Answer: The Kd was 5 µM.
